Measurements reported in paper doi:10.1101/2024.07.31.606000 (bioRxiv, 2024).

Legend:
complement factor H = complement factor H (UniProt P08603 19-1231); experiment: SPR
complement C8 = complement C8 (UniProt P07357 31-584; P07358 55-591; P07360 21-202); experiment: SPR
Chain of complement C8 (P07357 31-584, chain 1 of 3): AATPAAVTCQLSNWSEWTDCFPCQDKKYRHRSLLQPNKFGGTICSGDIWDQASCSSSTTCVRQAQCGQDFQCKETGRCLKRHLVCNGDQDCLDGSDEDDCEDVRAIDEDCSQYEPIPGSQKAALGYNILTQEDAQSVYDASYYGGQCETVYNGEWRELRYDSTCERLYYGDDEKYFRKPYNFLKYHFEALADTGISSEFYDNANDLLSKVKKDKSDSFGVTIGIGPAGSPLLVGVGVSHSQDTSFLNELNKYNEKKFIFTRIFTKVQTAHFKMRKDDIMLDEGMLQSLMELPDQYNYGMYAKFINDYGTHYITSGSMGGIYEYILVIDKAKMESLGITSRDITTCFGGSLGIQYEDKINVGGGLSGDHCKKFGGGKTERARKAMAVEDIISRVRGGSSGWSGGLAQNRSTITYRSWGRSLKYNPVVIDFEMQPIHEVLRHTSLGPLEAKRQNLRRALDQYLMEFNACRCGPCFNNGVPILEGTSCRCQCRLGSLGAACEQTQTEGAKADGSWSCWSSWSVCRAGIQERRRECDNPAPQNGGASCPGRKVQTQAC
Chain of complement C8 (P07358 55-591, chain 2 of 3): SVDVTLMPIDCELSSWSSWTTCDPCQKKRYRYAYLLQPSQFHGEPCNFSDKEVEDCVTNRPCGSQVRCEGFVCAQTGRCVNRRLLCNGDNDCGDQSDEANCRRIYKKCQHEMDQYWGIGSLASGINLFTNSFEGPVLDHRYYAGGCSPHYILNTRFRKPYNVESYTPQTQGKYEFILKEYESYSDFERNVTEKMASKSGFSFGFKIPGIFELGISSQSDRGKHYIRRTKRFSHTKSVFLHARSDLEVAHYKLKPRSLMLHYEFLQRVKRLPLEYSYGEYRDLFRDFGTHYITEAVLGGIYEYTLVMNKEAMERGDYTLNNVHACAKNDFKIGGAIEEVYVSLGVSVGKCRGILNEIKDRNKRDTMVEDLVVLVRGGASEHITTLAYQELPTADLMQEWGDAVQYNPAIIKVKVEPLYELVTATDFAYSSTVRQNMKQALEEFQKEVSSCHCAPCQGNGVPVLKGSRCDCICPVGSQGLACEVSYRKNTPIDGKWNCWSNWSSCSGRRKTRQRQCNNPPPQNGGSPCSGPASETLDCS
Chain of complement C8 (P07360 21-202, chain 3 of 3): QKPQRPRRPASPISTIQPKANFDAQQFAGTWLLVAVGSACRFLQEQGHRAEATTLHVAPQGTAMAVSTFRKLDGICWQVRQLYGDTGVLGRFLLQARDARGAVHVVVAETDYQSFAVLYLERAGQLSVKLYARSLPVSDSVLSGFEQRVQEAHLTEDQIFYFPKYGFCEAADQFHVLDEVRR

Chain of complement factor H (P08603 19-1231): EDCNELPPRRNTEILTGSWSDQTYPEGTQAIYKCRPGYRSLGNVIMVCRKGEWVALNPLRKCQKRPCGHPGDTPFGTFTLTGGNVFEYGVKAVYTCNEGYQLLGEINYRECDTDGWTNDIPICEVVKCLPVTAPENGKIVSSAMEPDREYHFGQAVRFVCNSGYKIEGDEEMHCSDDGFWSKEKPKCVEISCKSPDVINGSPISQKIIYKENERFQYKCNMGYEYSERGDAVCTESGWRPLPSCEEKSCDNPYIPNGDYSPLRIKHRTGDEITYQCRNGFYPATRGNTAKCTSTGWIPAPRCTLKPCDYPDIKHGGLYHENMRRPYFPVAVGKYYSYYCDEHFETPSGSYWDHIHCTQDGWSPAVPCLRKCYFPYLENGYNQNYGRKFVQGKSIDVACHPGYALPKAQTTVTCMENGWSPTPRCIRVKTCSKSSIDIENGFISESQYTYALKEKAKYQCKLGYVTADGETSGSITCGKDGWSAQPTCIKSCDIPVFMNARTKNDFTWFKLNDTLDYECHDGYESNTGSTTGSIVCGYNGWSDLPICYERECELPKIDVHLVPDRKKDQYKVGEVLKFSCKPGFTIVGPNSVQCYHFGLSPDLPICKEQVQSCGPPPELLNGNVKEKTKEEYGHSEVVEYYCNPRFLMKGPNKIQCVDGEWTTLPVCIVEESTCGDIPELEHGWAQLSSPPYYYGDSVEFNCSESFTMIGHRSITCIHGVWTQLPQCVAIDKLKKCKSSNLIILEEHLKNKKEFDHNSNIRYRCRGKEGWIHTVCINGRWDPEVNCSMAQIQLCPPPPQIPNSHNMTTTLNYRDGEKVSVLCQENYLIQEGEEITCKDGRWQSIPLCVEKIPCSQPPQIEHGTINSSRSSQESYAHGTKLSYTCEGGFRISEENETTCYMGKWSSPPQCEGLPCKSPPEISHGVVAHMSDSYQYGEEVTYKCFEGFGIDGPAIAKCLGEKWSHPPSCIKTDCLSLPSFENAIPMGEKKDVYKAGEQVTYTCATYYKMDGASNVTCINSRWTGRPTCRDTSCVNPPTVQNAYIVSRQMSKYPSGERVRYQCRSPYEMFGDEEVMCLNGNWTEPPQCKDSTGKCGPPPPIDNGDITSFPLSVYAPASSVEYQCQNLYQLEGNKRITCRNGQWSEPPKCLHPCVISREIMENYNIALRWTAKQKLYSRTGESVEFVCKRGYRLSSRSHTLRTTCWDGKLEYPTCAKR

- Kd (complement factor H): 203 nM
- Kd (complement C8): 311 nM
B1: recombinant full-length thrombospondin-1 (natural protein)
chain: not shown
